In the test the target is Neh2-luciferase fusion protein (human; firefly).

Take “FLAG-labeled Keap1 expressed from an adenovirus”: the background luminescence of the Neh2-luc reporter cell line (fold decrease) came out at 3.5.

For the origin of these results see patent publication US20130005666A1.
